Data taken from article PMC4264689, “Oligomerization, Conformational Stability and Thermal Unfolding of Harpin, HrpZPss and Its Hypersensitive Response-Inducing C-Terminal Fragment, C-214-HrpZPss” (PLoS ONE, 2014).

B1: HrpZPss (harpin HrpZ from Pseudomonas syringae pv. syringae), full length (natural protein)
chain: MQSLSLNSSSLQTPAMALVLVRPEAETTGSTSSKALQEVVVKLAEELMRNGQLDDSSPLGKLLAKSMAADGKAGGGIEDVIAALDKLIHEKLGDNFGASADSASGTGQQDLMTQVLNGLAKSMLDDLLTKQDGGTSFSEDDMPMLNKIAQFMDDNPAQFPKPDSGSWVNELKEDNFLDGDETAAFRSALDIIGQQLGNQQSDAGSLAGTGGGLGTPSSFSNNSSVMGDPLIDANTGPGDSGNTRGEAGQLIGELIDRGLQSVLAGGGLGTPVNTPQTGTSANGGQSAQDLDQLLGGLLLKGLEATLKDAGQTGTDVQSSAAQIATLLVSTLLQGTRNQAAA
notes: Harpin HrpZ of Pseudomonas syringae pv. syringae, 34.7 kDa, 341 amino acids, full length; Forms polydisperse oligomers; the number of copies is not defined; also called full length HrpZPss; native HrpZPss; source: expressed and purified as described earlier [15]
B2: C-214-HrpZPss (C-terminal fragment of HrpZPss with 214 amino acids) (domain or fragment)
chain: LTKQDGGTSFSEDDMPMLNKIAQFMDDNPAQFPKPDSGSWVNELKEDNFLDGDETAAFRSALDIIGQQLGNQQSDAGSLAGTGGGLGTPSSFSNNSSVMGDPLIDANTGPGDSGNTRGEAGQLIGELIDRGLQSVLAGGGLGTPVNTPQTGTSANGGQSAQDLDQLLGGLLLKGLEATLKDAGQTGTDVQSSAAQIATLLVSTLLQGTRNQAAA
notes: Harpin HrpZ of Pseudomonas syringae pv. syringae, C-terminal 214 residues (N-terminal 127 amino acids deleted); Cloned under the NdeI and EcoRI sites of pET 28a, which probably adds an N-terminal His6 tag with a thrombin site; Forms polydisperse oligomers; the number of copies is not defined; also called C-terminal 214 residues of HrpZPss; source: E. coli BL21 (DE3), pET 28a, purified (Ni-NTA, …)

Biological target: the molecule itself
Experiment: native gel or EMSA; native PAGE of the purified proteins in solution; multiple bands / broad smear taken as polydisperse oligomers; gel conditions not given

| Protein | binding result |
| --- | --- |
| B1 | binds |
| B2 | binds |
